Experiments:
[1] = test system: HIV-1 LTR promoter transactivation by HIV-1 Tat; assay: Transactivation assay, HIV-1 LTR luciferase reporter with HIV-1 Tat; format: cell-based; settings: HEK293 cells co-transfected with pHIV1LTR-Luc, HIV-1 Tat and the human ORF; relative luciferase activity 24 h post-transfection; positive if >=2 or <=0.5 and p<0.05
Summary of the method: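 HEK293 cells (10^4) were calcium-phosphate co-transfected with the HIV-1 LTR-luciferase reporter plus HIV-1 Tat, or the HTLV-1 LTR-luciferase reporter plus HTLV-1 Tax, each with a human ORF expression plasmid. A hit required relative activity ≥2 or ≤0.5 with paired t-test p<0.05.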

[2] = test system: HTLV-1 LTR promoter transactivation by HTLV-1 Tax; assay: Transactivation assay, HTLV-1 LTR luciferase reporter with HTLV-1 Tax; format: cell-based; settings: HEK293 cells co-transfected with pHTLV1LTR-Luc, HTLV-1 Tax and the human ORF; relative luciferase activity 24 h post-transfection; positive if >=2 or <=0.5 and p<0.05

B1: GCC1: human host interactor protein, Gene ID 79571, expressed from transfected ORF vector (protein)
chain: MEKFGMNFGGGPSKKDLLETIETQKKQLLQYQARLKDVVRAYKSLLKEKEALEASIKVLSVSHEADVGLAGVQLPGLTFPDSVDDRCSTHSEDSTGTATSLDTAASLTSTKGEFGVEDDRPARGPPPPKSEEASWSESGVSSSSGDGPFAGGEVDKRLHQLKTQLATLTSSLATVTQEKSRMEASYLADKKKMKQDLEDASNKAEEERARLEGELKGLQEQIAETKARLITQQHDRAQEQSDHALMLRELQKLLQEERTQRQDLELRLEETREALAGRAYAAEQMEGFELQTKQLTREVEELKSELQAIRDEKNQPDPRLQELQEEAARLKSHFQAQLQQEMRKTALAEDQLRQQSQVEEQRVAALENQISEVSELLGTYEKAKQKDQLAIQKLKERILQLDLENKTLALAASSRSPLDSHGEESSLDVNVLKDKMEKLKRLLQVAARKSQVTLDVEKLCDLEIMPSSEAADGEKATALYYQQELKQLKEEFERYKMRAQVVLKSKNTKDGNLGKELEAAQEQLAELKEKYISLRLSCEELEHQHQQEADDWKQELARLQQLHRQELERCQLDFRDRTLKLEEELHKQRDRALAVLTEKDLELEQLRSVALASGLPGRRSPVGGGGPGDPADTSSSDSLTQALQLAAANEPTFFLYAEQLARKEVEITSLRKQKHRLEVEVHQLQDRLLEEGERHREEVAALQSHIEKNIRDQSREGANLEYLKNIIYRFLTLPDSLGRQQTLTAILTILHFSPEEKQVIMRLPTSASWWPSGKR
B1 showed an HIV_LTR transactiv. [1] of 3.78 fold change and an HTLV_LTR transactiv. [2] of 0.29 fold change.

B2: DLX2: human host interactor protein, Gene ID 1746, expressed from transfected ORF vector (protein)
chain: MTGVFDSLVADMHSTQIAASSTYHQHQQPPSGGGAGPGGNSSSSSSLHKPQESPTLPVSTATDSSYYTNQQHPAGGGGGGGSPYAHMGSYQYQASGLNNVPYSAKSSYDLGYTAAYTSYAPYGTSSSPANNEPEKEDLEPEIRIVNGKPKKVRKPRTIYSSFQLAALQRRFQKTQYLALPERAELAASLGLTQTQVKIWFQNRRSKFKKMWKSGEIPSEQHPGASASPPCASPPVSAPASWDFGVPQRMAGGGGPGSGGSGAGSSGSSPSSAASAFLGNYPWYHQTSGSASHLQATAPLLHPTQTPQPHHHHHHHGGGGAPVSAGTIF
For B2, the HIV_LTR transactiv. [1] was 0.24 fold change and the HTLV_LTR transactiv. [2] was 0.30 fold change.

B3: KRT8: human host interactor protein, Gene ID 3856, expressed from transfected ORF vector (protein)
chain: MSIRVTQKSYKVSTSGPRAFSSRSYTSGPGSRISSSSFSRVGSSNFRGGLGGGYGGASGMGGITAVTVNQSLLSPLVLEVDPNIQAVRTQEKEQIKTLNNKFASFIDKVRFLEQQNKMLETKWSLLQQQKTARSNMDNMFESYINNLRRQLETLGQEKLKLEAELGNMQGLVEDFKNKYEDEINKRTEMENEFVLIKKDVDEAYMNKVELESRLEGLTDEINFLRQLYEEEIRELQSQISDTSVVLSMDNSRSLDMDSIIAEVKAQYEDIANRSRAEAESMYQIKYEELQSLAGKHGDDLRRTKTEISEMNRNISRLQAEIEGLKGQRASLEAAIADAEQRGELAIKDANAKLSELEAALQRAKQDMARQLREYQELMNVKLALDIEIATYRKLLEGEESRLESGMQNMSIHTKTTSGYAGGLSSAYGGLTSPGLSYSLGSSFGSGAGSSSFSRTSSSRAVVVKKIETRDGKLVSESSDVLPK
B3 was tested, and the HIV_LTR transactiv. [1] was 0.19 fold change and the HTLV_LTR transactiv. [2] was 0.24 fold change.

B4: FANCG: human host interactor protein, Gene ID 2189, expressed from transfected ORF vector (protein)
chain: MSRQTTSVGSSCLDLWREKNDRLVRQAKVAQNSGLTLRRQQLAQDALEGLRGLLHSLQGLPAAVPVLPLELTVTCNFIILRASLAQGFTEDQAQDIQRSLERVLETQEQQGPRLEQGLRELWDSVLRASCLLPELLSALHRLVGLQAALWLSADRLGDLALLLETLNGSQSGASKDLLLLLKTWSPPAEELDAPLTLQDAQGLKDVLLTAFAYRQGLQELITGNPDKALSSLHEAASGLCPRPVLVQVYTALGSCHRKMGNPQRALLYLVAALKEGSAWGPPLLEASRLYQQLGDTTAELESLELLVEALNVPCSSKAPQFLIEVELLLPPPDLASPLHCGTQSQTKHILASRCLQTGRAGDAAEHYLDLLALLLDSSEPRFSPPPSPPGPCMPEVFLEAAVALIQAGRAQDALTLCEELLSRTSSLLPKMSRLWEDARKGTKELPYCPLWVSATHLLQGQAWVQLGAQKVAISEFSRCLELLFRATPEEKEQGAAFNCEQGCKSDAALQQLRAAALISRGLEWVASGQDTKALQDFLLSVQMCPGNRDTYFHLLQTLKRLDRRDEATALWWRLEAQTKGSHEDALWSLPLYLESYLSWIRPSDRDAFLEEFRTSLPKSCDL
B4 gave an HIV_LTR transactiv. [1] of 0.27 fold change and an HTLV_LTR transactiv. [2] of 3.48 fold change.

B5: C20orf141: human host interactor protein, Gene ID 128653, expressed from transfected ORF vector (protein)
chain: MTRLCLPRPEAREDPIPVPPRGLGAGEGSGSPVRPPVSTWGPSWAQLLDSVLWLGALGLTIQAVFSTTGPALLLLLVSFLTFDLLHRPAGHTLPQRKLLTRGQSQGAGEGPGQQEALLLQMGTVSGQLSLQDALLLLLMGLGPLLRACGMPLTLLGLAFCLHPWA
Molecule B5 has an HIV_LTR transactiv. [1] of 0.35 fold change and an HTLV_LTR transactiv. [2] of 2.80 fold change.

B6: LNX2: human host interactor protein, Gene ID 222484, expressed from transfected ORF vector (protein)
chain: MGTTSDEMVSVEQTSSSSLNPLCFECGQQHWTRENHLYNYQNEVDDDLVCHICLQPLLQPLDTPCGHTFCYKCLRNFLQEKDFCPLDRKRLHFKLCKKSSILVHKLLDKLLVLCPFSSVCKDVMQRCDLEAHLKNRCPGASHRRVALERRKTSRTQAEIENENGPTLLDPAGTLSPEADCLGTGAVPVERHLTSASLSTWSEEPGLDNPAFEESAGADTTQQPLSLPEGEITTIEIHRSNPYIQLGISIVGGNETPLINIVIQEVYRDGVIARDGRLLAGDQILQVNNYNISNVSHNYARAVLSQPCNTLHLTVLRERRFGNRAHNHSDSNSPREEIFQVALHKRDSGEQLGIKLVRRTDEPGVFILDLLEGGLAAQDGRLSSNDRVLAINGHDLKYGTPELAAQIIQASGERVNLTIARPGKPQPGNTIREAGNHSSSSQHHTPPPYYSRPSSHKDLTQCVTCQEKHITVKKEPHESLGMTVAGGRGSKSGELPIFVTSVPPHGCLARDGRIKRGDVLLNINGIDLTNLSHSEAVAMLKASAASPAVALKALEVQIVEEATQNAEEQPSTFSENEYDASWSPSWVMWLGLPSTLHSCHDIVLRRSYLGSWGFSIVGGYEENHTNQPFFIKTIVLGTPAYYDGRLKCGDMIVAVNGLSTVGMSHSALVPMLKEQRNKVTLTVICWPGSLV
Work on B6 yielded an HIV_LTR transactiv. [1] of 0.26 fold change and an HTLV_LTR transactiv. [2] of 0.28 fold change.
